Values quoted from earlier work as cited in publication PMC7287924.
pKd: −log10 of the molar value.

Molecular target: CD47 (Homo sapiens) (UniProt Q08722)
Sequence (Q08722 19-323): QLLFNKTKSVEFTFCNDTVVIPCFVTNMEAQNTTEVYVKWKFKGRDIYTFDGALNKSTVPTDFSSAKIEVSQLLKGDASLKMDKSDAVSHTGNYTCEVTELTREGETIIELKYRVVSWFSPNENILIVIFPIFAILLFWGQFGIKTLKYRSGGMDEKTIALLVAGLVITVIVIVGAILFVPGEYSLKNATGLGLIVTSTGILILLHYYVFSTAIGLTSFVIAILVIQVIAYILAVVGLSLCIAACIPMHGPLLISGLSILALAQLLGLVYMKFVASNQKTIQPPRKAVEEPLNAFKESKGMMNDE

Sequence of TSP1 (P07996 19-1170): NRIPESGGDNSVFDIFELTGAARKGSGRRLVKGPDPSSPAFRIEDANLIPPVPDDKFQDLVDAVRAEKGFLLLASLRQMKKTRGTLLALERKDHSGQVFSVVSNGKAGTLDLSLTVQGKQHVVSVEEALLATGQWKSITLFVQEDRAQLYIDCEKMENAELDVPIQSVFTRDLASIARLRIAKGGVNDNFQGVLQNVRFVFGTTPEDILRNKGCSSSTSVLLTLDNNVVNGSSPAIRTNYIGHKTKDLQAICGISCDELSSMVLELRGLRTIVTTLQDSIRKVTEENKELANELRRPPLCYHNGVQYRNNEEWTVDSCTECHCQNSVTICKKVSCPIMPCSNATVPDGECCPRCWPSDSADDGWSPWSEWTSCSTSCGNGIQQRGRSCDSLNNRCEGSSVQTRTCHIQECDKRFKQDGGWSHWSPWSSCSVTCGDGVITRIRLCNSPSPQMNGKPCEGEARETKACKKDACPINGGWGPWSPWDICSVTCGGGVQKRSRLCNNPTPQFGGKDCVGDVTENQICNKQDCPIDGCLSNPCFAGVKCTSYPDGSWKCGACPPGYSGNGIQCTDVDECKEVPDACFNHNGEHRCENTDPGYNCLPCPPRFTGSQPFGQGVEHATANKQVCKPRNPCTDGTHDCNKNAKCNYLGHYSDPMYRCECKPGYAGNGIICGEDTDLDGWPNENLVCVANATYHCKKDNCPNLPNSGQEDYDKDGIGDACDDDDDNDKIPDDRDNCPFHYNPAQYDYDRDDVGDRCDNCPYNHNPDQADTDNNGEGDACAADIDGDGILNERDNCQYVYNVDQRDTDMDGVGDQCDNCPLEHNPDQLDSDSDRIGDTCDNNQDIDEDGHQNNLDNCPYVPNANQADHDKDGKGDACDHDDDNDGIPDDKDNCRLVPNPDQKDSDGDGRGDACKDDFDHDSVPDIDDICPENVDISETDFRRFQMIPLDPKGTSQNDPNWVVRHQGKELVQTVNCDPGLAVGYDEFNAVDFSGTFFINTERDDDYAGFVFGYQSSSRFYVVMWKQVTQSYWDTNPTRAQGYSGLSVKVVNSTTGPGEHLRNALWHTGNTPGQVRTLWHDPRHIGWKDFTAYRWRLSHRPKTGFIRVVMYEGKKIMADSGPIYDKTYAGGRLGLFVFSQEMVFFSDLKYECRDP

TSP1 (from UniProt P07996)
pKd: 11.00
